# Reference: patent US20220395553A1 (COHBAR, published 2022)
# Square brackets hold non-standard residues; d marks the D form. Ends that are not written are not given here.
# Molecular target: T1, SNAP tagged-CXC4 receptor labeled with terbium (Tag-lite CXCR4 cells, HEK293) (UniProt P61073 1-352, SNAP tag labeled with terbium fluorescent dye)
# T1 construct: whole, on cells; Bought frozen cells (PerkinElmer-CisBio), HEK293 transiently expressing the receptor; also called terbium labeled CXCR receptor
# Test: HTRF competition on Tag-lite CXCR4 HEK293 cells; competitor labelled CXCL12
# Method: (§1) Peptides were initially prepared as 1 mM stock in H₂O and tested at a final concentration of 400 nM. Following the manufacture's protocol, a frozen aliquot of Tag-lite CXCR4 cells was thawed and immediately seeded onto 384-well plates in TLB. Immediately following the addition of cells, 400 nM peptide (final concentration) in TLB was added to the appropriate well. […] The plates were covered in aluminum foil and left at room temperature for 3 hours. Following the 3 hour incubation period, the plates were removed from the incubator and fluorescence measured using a Cytation 1 plate reader using a HTRF filter cube ([…]; BioTek; Winooski, Vt.).
# T1 sequence (P61073 whole entry): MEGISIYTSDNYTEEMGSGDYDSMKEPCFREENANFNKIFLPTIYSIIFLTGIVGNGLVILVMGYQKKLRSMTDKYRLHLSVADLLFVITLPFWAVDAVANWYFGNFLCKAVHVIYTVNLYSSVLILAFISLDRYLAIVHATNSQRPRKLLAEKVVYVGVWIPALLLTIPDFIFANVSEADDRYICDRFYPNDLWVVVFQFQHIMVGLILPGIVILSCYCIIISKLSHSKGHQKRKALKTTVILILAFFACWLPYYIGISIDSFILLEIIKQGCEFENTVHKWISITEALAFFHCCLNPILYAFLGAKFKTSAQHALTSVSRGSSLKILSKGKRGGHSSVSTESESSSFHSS
row,Binder,Percent Inhibition of CXCR4/CXCL12 Binding (400 nM peptide)
1,LERYHHTVRSSLRPYTK [SEQ ID NO: 39],87%
2,LERYHHSVRSSLRPYSK [SEQ ID NO: 75],81%
3,LRRYHHSVRSSLRGYTK [SEQ ID NO: 79],12%
4,LRRYHHSVRTSLRPYTK [SEQ ID NO: 70],11%
5,LERYHHSVRSTLRPYTK [SEQ ID NO: 74],88%
6,LERYHHSVRTSLRPYTK [SEQ ID NO: 73],87%
7,LERYHHSVRSSLRPYTK [SEQ ID NO: 4],88%

# Molecular target: T2, CXCR4 on cultured U937 and Jurkat cells (human, UniProt P61073 1-352)
# Test: cell-based or functional assay
# T2 sequence (P61073 whole entry): as above
Binder,Percent Inhibition of CXCR4/CXCL12 Induced p-MEK (100 nM Test Article),Percent Inhibition of CXCR4/CXCL12 Induced p-MEK (1 µM Test Article)
LERYHHTVRSSLRPYTK [SEQ ID NO: 39],38%,95%
LERYHHSVRSSLRPYSK [SEQ ID NO: 75],60%,100%
LRRYHHSVRSSLRGYTK [SEQ ID NO: 79],46%,100%
LRRYHHSVRTSLRPYTK [SEQ ID NO: 70],57%,93%
MLRRYHHSVRSSLRPYTK [SEQ ID NO: 2],-1%,28%
LRRYHHSVRSSLRPYTK-NH2 [SEQ ID NO: 16],74%,100%
LRRYHHSVRSSLRPYTK [SEQ ID NO: 3],29%,91%
LERYHHS[dA]RSSLRPYT [SEQ ID NO: 5],-20%,24%
LERYHHSVRSSLRPYTK-NH2 [SEQ ID NO: 56],69%,98%
LERYHHSVRSTLRPYTK [SEQ ID NO: 74],48%,93%
LERYHHSVRTSLRPYTK [SEQ ID NO: 73],47%,96%
LERYHHSVRSSLRPYTK [SEQ ID NO: 4],40%,76%

# Molecular target: T3, ProLink tagged human CXCR4 (C2C12 CXCR4 β-Arrestin cell line) (human, UniProt P61073 1-352)
# Test: cell-based or functional assay
# T3 sequence (P61073 whole entry): as above
row,Binder,IC50 for Inhibition of CXCR4 Activation (β-Arrestin recruitment)
1,LERYHHTVRSSLRPYTK [SEQ ID NO: 39],3 nM
2,LERYHHSVRSSLRPYSK [SEQ ID NO: 75],4 nM
3,LRRYHHSVRSSLRGYTK [SEQ ID NO: 79],3 nM
4,LRRYHHSVRTSLRPYTK [SEQ ID NO: 70],2 nM
5,MLRRYHHSVRSSLRPYTK [SEQ ID NO: 2],11 nM
6,LERYHHS[dA]RSSLRPYT [SEQ ID NO: 5],244 nM
7,LERYHHSVRSTLRPYTK [SEQ ID NO: 74],5 nM
8,LERYHHSVRTSLRPYTK [SEQ ID NO: 73],4 nM

# Molecular target: T4, ProLink tagged human CXCR4 (C2C12 CXCR4 β-Arrestin cell line) (human, UniProt P61073 1-352)
# Test: cell-based or functional assay
# T4 sequence (P61073 whole entry): as above
row,Binder,IC50 for Inhibition of CXCR4 Activation (β-Arrestin recruitment)
1,LRRYHHSVRSSLRPYTK-NH2 [SEQ ID NO: 16],8 nM
2,LRRYHHSVRSSLRPYTK [SEQ ID NO: 3],5 nM
3,LERYHHSVRSSLRPYTK-NH2 [SEQ ID NO: 56],11 nM
4,LERYHHSVRSSLRPYTK [SEQ ID NO: 4],4 nM

# Molecular target: T2, CXCR4 on cultured U937 and Jurkat cells
# Test: cell-based or functional assay
# Remark: another data set of the same source
row,Binder,Percent Inhibition of CXCL12 Mediated Migration (1.1 µM Test Article; Jurkat cells)
1,LERYHHTVRSSLRPYTK [SEQ ID NO: 39],77%
2,LERYHHSVRSSLRPYSK [SEQ ID NO: 75],81%
3,LRRYHHSVRSSLRGYTK [SEQ ID NO: 79],36%
4,LRRYHHSVRTSLRPYTK [SEQ ID NO: 70],21%
5,MLRRYHHSVRSSLRPYTK [SEQ ID NO: 2],4%
6,LRRYHHSVRSSLRPYTK-NH2 [SEQ ID NO: 16],21%
7,LRRYHHSVRSSLRPYTK [SEQ ID NO: 3],66%
8,LERYHHS[dA]RSSLRPYT [SEQ ID NO: 5],46%
9,LERYHHSVRSSLRPYTK-NH2 [SEQ ID NO: 56],83%
10,LERYHHSVRSTLRPYTK [SEQ ID NO: 74],61%
11,LERYHHSVRTSLRPYTK [SEQ ID NO: 73],82%
12,LERYHHSVRSSLRPYTK [SEQ ID NO: 4],77%

# Molecular target: T2, CXCR4 on cultured U937 and Jurkat cells
# Test: cell-based or functional assay
# Remark: another data set of the same source
row,Binder,Percent Inhibition of CXCL12 Mediated Migration (U937 cells)
1,MLRRYHHSVRSSLRPYTK [SEQ ID NO: 2],58%
2,LRRYHHSVRSSLRPYTK [SEQ ID NO: 3],101%
3,LERYHHS[dA]RSSLRPYT [SEQ ID NO: 5],86%
4,LERYHHSVRSSLRPYTK [SEQ ID NO: 4],98%

# Molecular target: T3, ProLink tagged human CXCR4 (C2C12 CXCR4 …)
# Test: cell-based or functional assay
# Remark: another data set of the same source
row,Binder,IC50 for Inhibition of CXCR4 (β-Arrestin recruitment)
1,LERYHHS[dA]RSSLRPYT [SEQ ID NO: 5],121 nM

# Molecular target: T4, ProLink tagged human CXCR4 (C2C12 CXCR4 …)
# Test: cell-based or functional assay
# Remark: another data set of the same source
row,Binder,IC50 for Inhibition of CXCR4 (β-Arrestin recruitment)
1,LRRYHHSVRSSLRPYTK [SEQ ID NO: 3],0.51 nM
2,LERYHHSVRSSLRPYTK [SEQ ID NO: 4],2.28 nM

# Molecular target: T1, SNAP tagged-CXC4 receptor labeled with …
# Test: HTRF competition on Tag-lite CXCR4 HEK293 cells; competitor labelled CXCL12
# Remark: another data set of the same source
# Method: as §1, with “H₂O. […]” for “H₂O and tested at a final concentration of 400 nM.”, “TLB.” for “TLB. Immediately following the addition of cells, 400 nM peptide (final concentration) in TLB was added to the appropriate well.”
row,Binder,IC50
1,LERYHHTVRSSLRPYTK [SEQ ID NO: 39],8 nM
2,LERYHHSVRSSLRPYSK [SEQ ID NO: 75],11 nM
3,LRRYHHSVRSSLRGYTK [SEQ ID NO: 79],670 nM
4,LRRYHHSVRTSLRPYTK [SEQ ID NO: 70],336 nM
5,MLRRYHHSVRSSLRPYTK [SEQ ID NO: 2],375 nM
6,LRRYHHSVRSSLRPYTK [SEQ ID NO: 3],497 nM
7,LERYHHS[dA]RSSLRPYT [SEQ ID NO: 5],33 nM
8,LERYHHSVRSTLRPYTK [SEQ ID NO: 74],6 nM
9,LERYHHSVRTSLRPYTK [SEQ ID NO: 73],10 nM
10,LERYHHSVRSSLRPYTK [SEQ ID NO: 4],6 nM
